Assays:
microglial cells = assay: ROS production in cultured microglial cells; type: cell-based, mice; settings: after addition of β-amyloid and antibody
Procedure: A second functional experiment performed on microglial cells involved measuring the production of reactive oxygen species (ROS), which contribute to creating a highly oxidising environment harmful to the neurones. Once again (FIG. 5), a physiological increase in cytoplasmic ROS was recorded (baseline), with ROS production after addition of β-amyloid, and finally, cell oxidation during the simultaneous presence of amyloid peptide and the tmCLIC1omab antibody.

human glioblastoma cells [1] = assay: Growth curves of human glioblastoma cells in primary culture; type: cell-based
From the text: The primary glioblastoma cell lines, already tested for stem cell properties and carcinogenicity, were kindly supplied by Professor T. Florio's laboratory at Genoa University (Genoa, Italy). The cells were obtained from a surgical biopsy performed in the Neurosurgery Department of IRCCS-AOU San Martino IST (Genoa, Italy), from patients who had not received any treatment before the operation. The samples were histologically classified as GB grade IV (according to the WHO classification), and were used after obtaining the patients' informed consent and the approval of the Institutional Ethics Committee (IEC). The cells were cultured in stem cell-permissive medium consisting of Dulbecco's Modified Eagle's Medium (DMEM) and F12-GlutaMAX at the ratio of 1:1, supplemented with 1×B27 (Thermo Fisher Scientific), […] of fibroblast growth factor (FGF, Miltenyi Biotec), […] of human epidermal growth factor (EGF, Miltenyi Biotec) and 1% penicillin/streptomycin (Pen/Strep, […]) (Thermo Fisher Scientific).
The cells were seeded in 24-well plates (20,000 cells/well) and counted after 24, 48, 72 and 96 hours to construct the growth curve. The cells were collected and centrifuged, and the resuspended pellet was diluted 1:1 with Trypan Blue. An automated counter (Countess II, Thermo Fisher Scientific) was used to count the cells. All data were normalized to their controls.

human glioblastoma cells [2] = assay: Glioblastoma cells pre-treated with antibody, inoculated into the brain of immunodepressed mice, magnetic resonance scan; type: in vivo; settings: cells incubated 72 hours with antibody before inoculation; scan two months after inoculation
Procedure: In the in vivo experiments, human glioblastoma cells were incubated for 72 hours with tmCLIC1omab antibody before being inoculated into the brain of immunodepressed mice.
Patient-derived neurospheres were mechanically dissociated, resuspended in […], and injected into the caudate nucleus (1 mm posterior, 3 mm left lateral, 3.5 mm deep relative to bregma) of 5-week-old female CD1 nu/nu mice (Charles River, Wilmington, MA). The cells were incubated with the antibody or the control isotype for 72 hours before implantation (10^5 cells) into the brain of immunodeficient mice. The experiments were conducted pursuant to Italian law (Order of the Executive 116/92, as amended), which transposes EU Directive 86/609 (Council Directive 86/609/EEC of 24 Nov. 1986 on the approximation of laws, regulations and administrative provisions of the Member States regarding the protection of animals used for experimental and other scientific purposes).

COLO201 = assay: Trans well migration and invasion assay; type: cell-based; settings: COLO201 WT, 72 h
Procedure: The overexpression of tmCLIC1 in the most aggressive cell lines of colorectal cancer and its pivotal role in regulation of cell cycle progression and proliferation, opens a question on the function of tmCLIC1 activity on migration and invasion potential of CRCs, that makes colorectal cancer still uncurable. We performed a Trans well assay to understand whether CLIC1 impairment could affect the migration and invasion potential of COLO201. Cells were plated after 60 hours of serum deprivation on a porous membrane, permeable only to growth factor, in contact to complete medium. The resulting chemo-attractant gradient leads the migrative cells to cross the membranes that are then stained with DAPI to visualize the nuclei. […] For invasion assays, we coated with Matrigel the porous membrane to mimic the extracellular matrix that cells must disrupt to invade tissues and mucosa.
Cells were plated after 60 hours of serum deprivation on a […] porous membrane, permeable only to growth factor, in contact to complete medium. Membranes were cut, stained with DAPI dye, and included with mowiol. Cover glasses were examined under Zeiss Examiner A1 fluorescence microscope with a Zeiss 40×/0.75 NA water immersion lens.

[3] = test system: Metalloproteinase 7 (MMP7); assay: Western blot of Metalloproteinase 7 in COLO201; type: cell-based; settings: COLO201, 72 h of treatment
[4] = molecular target: T1, peptide […] (amino acids 3-24 of the CLIC1 protein) (Homo sapiens, UniProt O00299); assay: PEPperMAP epitope mapping on CLIC1 peptide microarrays; type: binding
T1 construct: conducted against the peptide […]; (amino acids 3-24 of the CLIC1 protein); host or cells: synthetic peptide microarray (PEPperMAP)
Procedure: PEPperMAP epitope Mapping® of the tmCLIC1omab antibody was conducted against the peptide […] (amino acids 3-24 of the CLIC1 protein) translated to linear peptides consisting of 5, 10 and 15 amino acids with peptide-peptide overlaps of 4, 9 and 14 amino acids for high-resolution epitope data. The resulting CLIC1 peptide microarrays were incubated with the antibody samples at concentrations of 1 μg/ml, 10 μg/ml, 100 μg/ml and 250 μg/ml in incubation buffer, followed by staining with secondary and control antibodies and reading with a LI-COR Odyssey Imaging System. The intensity of the points and peptide annotation were quantified with the PepSlide® Analyzer.

tmCLIC1 = molecular target: T2, tmCLIC1 (Mus musculus, UniProt Q9Z1Q5); assay: Immunofluorescence on live microglial cells; type: cell-based, mice; settings: live microglial cells before and after stimulation with β-amyloid
T2 construct: endogenous in cells; host or cells: BV-2 mouse microglial cell line
Procedure: The migration of the protein to the plasma membrane gives rise to insertion of CLIC1 as transmembrane protein. The tmCLIC1omab antibody was used on live cells to specifically identify tmCLIC1. […] In live cells, the tmCLIC1omab antibody was used before (B) and after (C) stimulation with β-amyloid.
Immunofluorescence analyses were conducted to evaluate the specificity of the antibody in binding the transmembrane portion of the CLIC1 protein in WT and Clic1^−/− cells. The cells (5×10^4 cells/well) were plated on slides (ϕ12 mm). The cells were kept viable throughout the initial processes. The cells were washed three times with PBS Ca^2+/Mg^2+, and incubated for 45 minutes at room temperature in blocking solution (5% BSA in PBS). Subsequently, after removal of the blocking solution, the solution containing the antibody (3.5 μg/ml in PBS/BSA 5×) was added, and incubated for 1 h at room temperature. After three washes with PBS Ca^2+/Mg^2+, the cells were fixed with paraformaldehyde (PFA 2%) for 5 minutes at room temperature. After being washed three times with PBS Ca^2+/Mg^2+, the cells were incubated with secondary antibody Alexa Fluor 488 (Thermo Fischer Scientific) for 2 h at room temperature in the dark. […] The slides were observed through a Zeiss Examiner A1 fluorescence microscope with a Zeiss 40×/0.75 NA water immersion lens.

B1: tmCLIC1omab: IgG1 class antibody containing the heavy chain variable region SEQ ID NO:13 and the light chain variable region SEQ ID NO:14 (antibody, listed as Mus musculus, V domains shown)
VH: EVMLVESGGGLVKPGGSLKLSCAASGFAFSNYAMSWIRQIPEKRLEWVATISTGGSSTFYPDSVKGRFTISRDNAKNTLYLQMSSLRSEDTAMYYCTRHAYEAWFAYWGQGTLVTVSA
VL: QIVLTQSPALMSASPGEKVTMTCSASSSVSYMYWYQQRPRSSPKPWIYLTSTLASGVPTRFSGSGSGTSYSLTISSMEAEDAATYYCQQWNSHPLTFGSGTKLEIK
ROS production (microglial cells): falls to the control level
growth rate compared with Clic1−/− knockout cells (human glioblastoma cells [1]; glioblastoma cells, FIG. 9): the same growth rate
cell growth (growth curve) (human glioblastoma cells [1]; primary culture, 4-day period): inhibited cell growth
tumour mass on magnetic resonance scan (human glioblastoma cells [2]): much smaller mass
migration (number of migrative nuclei) versus control (COLO201): significant lower number of migrative nuclei
invasion (number of invasive nuclei) versus control (COLO201; Matrigel-coated membrane): the same behavior seen for migration assay
expression of Metalloproteinase 7 [3]: mainly abolished
binding to the QVELFV sequence ([4]; linear peptide microarray): with lower affinity, binds the QVELFV sequence (SEQ ID NO:27) well
epitope sequence for which the antibody exhibits specificity ([4]; linear peptides of 5, 10 and 15 amino acids, antibody 1-250 μg/ml): QVELF
recognition of tmCLIC1 on live cells (tmCLIC1): only reacts from the exterior
